This is an account of results in publication PMC8811534.

This data set deals with hAGO2 (human, UniProt Q9UKV8 1-859). Description: EMSA. A general note: In EMSA bound probe runs differently from free probe, usually more slowly.
hAGO2, sequence (Q9UKV8 whole entry): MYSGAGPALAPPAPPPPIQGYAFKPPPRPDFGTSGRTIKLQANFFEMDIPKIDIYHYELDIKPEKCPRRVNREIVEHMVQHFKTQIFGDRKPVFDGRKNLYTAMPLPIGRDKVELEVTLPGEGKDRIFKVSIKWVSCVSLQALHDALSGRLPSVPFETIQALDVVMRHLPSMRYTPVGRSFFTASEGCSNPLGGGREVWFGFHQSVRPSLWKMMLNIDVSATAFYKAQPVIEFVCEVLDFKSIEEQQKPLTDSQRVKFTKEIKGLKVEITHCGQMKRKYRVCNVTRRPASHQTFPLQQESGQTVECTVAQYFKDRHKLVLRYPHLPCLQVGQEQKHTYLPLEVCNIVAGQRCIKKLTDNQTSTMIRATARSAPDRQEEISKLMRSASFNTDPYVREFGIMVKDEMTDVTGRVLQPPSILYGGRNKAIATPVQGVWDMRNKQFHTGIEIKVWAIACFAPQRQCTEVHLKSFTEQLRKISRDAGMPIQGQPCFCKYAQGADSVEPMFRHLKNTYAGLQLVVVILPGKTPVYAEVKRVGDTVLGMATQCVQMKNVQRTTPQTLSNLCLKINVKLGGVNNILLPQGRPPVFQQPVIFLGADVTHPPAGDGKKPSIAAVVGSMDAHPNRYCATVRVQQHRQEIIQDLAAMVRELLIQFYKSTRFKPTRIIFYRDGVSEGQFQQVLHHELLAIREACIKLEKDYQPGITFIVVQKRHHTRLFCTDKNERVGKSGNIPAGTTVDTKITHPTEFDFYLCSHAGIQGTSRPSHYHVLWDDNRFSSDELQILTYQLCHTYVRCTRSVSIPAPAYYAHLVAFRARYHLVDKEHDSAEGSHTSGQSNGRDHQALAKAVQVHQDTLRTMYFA

B1: 5'Cy5-HIS-SARS2-1 DNA duplex (dsDNA)
DNA 1: AGCCTTTACCTCCATTAGCATAGACA
DNA 2: TGTCTATGCTAATGGAGGTAAAGGCT
On to B1, for which the binding result is listed as “binds”.
